Target: T1, PUF4 RNA-binding domain (Saccharomyces cerevisiae, UniProt P25339 537-888)
T1 sequence: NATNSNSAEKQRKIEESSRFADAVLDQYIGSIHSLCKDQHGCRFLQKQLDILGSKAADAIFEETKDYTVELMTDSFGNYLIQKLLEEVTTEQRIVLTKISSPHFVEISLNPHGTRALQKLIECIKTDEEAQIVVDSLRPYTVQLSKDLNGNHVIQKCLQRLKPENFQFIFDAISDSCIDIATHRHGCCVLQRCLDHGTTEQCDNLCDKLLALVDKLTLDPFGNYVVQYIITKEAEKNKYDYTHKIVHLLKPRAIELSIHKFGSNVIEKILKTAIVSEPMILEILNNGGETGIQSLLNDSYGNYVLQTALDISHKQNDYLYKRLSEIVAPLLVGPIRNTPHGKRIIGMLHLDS
Assay: Mg; RNA-MaP; 20 mM Na-HEPES pH 7.4, 30 mM KOAc, 0.75 mM MgCl2, 0.1% Tween-20, 5% glycerol, 0.1 mg/mL BSA, 2 mM DTT; 25 C; 0.0125-409.6 nM protein
Settings: tags: N-His6-TEV cleaved; C-SNAP kept, Cy3B-labelled; label: tethered on chip by stalled RNA polymerase

UCUCUUCUUAUAUAUAAAUCUCUU (ssRNA) [Id_ii_S1_P3E.3_K3.2_C3.2_H3.2_A3.1_F3.1_T3.2_[T9A]]
Kd: 1180 nM

UCUCUUCUUAUAUAUACCUCUCUU (ssRNA) [Id_ii_S1_P3E.3_K3.2_C3.2_H3.2_A3.1_F3.1_T3.2_[T9C]_[A10C]]
Kd: 1300 nM

UCUCUUGCACACUAUAUUUCUCUU (ssRNA) [Id_ii_S1_P3E.4_K3.3_C3.2_[C-2G]_[T-1C]_H3.3_A3.1_F3.1_T3.2_[A10T]]
Kd: 94.8 nM

UCUCUUCAUAUAUAUAGGUCUCUU (ssRNA) [Id_ii_S1_P3E.3_K3.2_C3.2_[T-1A]_H3.2_A3.1_F3.1_T3.2_[T9G]_[A10G]]
Kd: 804 nM

UCUCUUCUUAUAUAUAUCUCUCUU (ssRNA) [Id_ii_S1_P3E.3_K3.2_C3.2_H3.2_A3.1_F3.1_T3.2_[A10C]]
Kd: 600 nM

UCUCUUUCACACUAUAUUUCUCUU (ssRNA) [Id_ii_S1_P3E.4_K3.3_C3.2_[C-2T]_[T-1C]_H3.3_A3.1_F3.1_T3.2_[A10T]]
Kd: > 2300 nM

UCUCUUCCUAUAUAUACCUCUCUU (ssRNA) [Id_ii_S1_P3E.3_K3.2_C3.2_[T-1C]_H3.2_A3.1_F3.1_T3.2_[T9C]_[A10C]]
Kd: 969 nM

UCUCUUUGACACUAUAAAUCUCUU (ssRNA) [Id_ii_S1_P3E.4_K3.3_C3.2_[C-2T]_[T-1G]_H3.3_A3.1_F3.1_T3.2_[T9A]]
Kd: > 2300 nM

UCUCUUCCUAUAUAUAUUUCUCUU (ssRNA) [Id_ii_S1_P3E.3_K3.2_C3.2_[T-1C]_H3.2_A3.1_F3.1_T3.2_[A10T]]
Kd: 673 nM

UCUCUUGUACACUAUAACUCUCUU (ssRNA) [Id_ii_S1_P3E.4_K3.3_C3.2_[C-2G]_H3.3_A3.1_F3.1_T3.2_[T9A]_[A10C]]
Kd: 1.63 nM

UCUCUUCCUAUAUAUAUCUCUCUU (ssRNA) [Id_ii_S1_P3E.3_K3.2_C3.2_[T-1C]_H3.2_A3.1_F3.1_T3.2_[A10C]]
Kd: 1000 nM

UCUCUUGCACACUAUACCUCUCUU (ssRNA) [Id_ii_S1_P3E.4_K3.3_C3.2_[C-2G]_[T-1C]_H3.3_A3.1_F3.1_T3.2_[T9C]_[A10C]]
Kd: 278 nM

UCUCUUGCACACUAUACAUCUCUU (ssRNA) [Id_ii_S1_P3E.4_K3.3_C3.2_[C-2G]_[T-1C]_H3.3_A3.1_F3.1_T3.2_[T9C]]
Kd: 275 nM

UCUCUUUGUAUAGUAUCUCUU (ssRNA) [Ia_S1_P4E.1_K4.1_C4.1_H4.1_A4.1_[T7G]_F4.1_T4.1]
Kd: 2.25 nM

UCUCUUCUUAUAUAUACAUCUCUU (ssRNA) [Id_ii_S1_P3E.3_K3.2_C3.2_H3.2_A3.1_F3.1_T3.2_[T9C]]
Kd: 907 nM

UCUCUUCAUAUAUAUACAUCUCUU (ssRNA) [Id_ii_S1_P3E.3_K3.2_C3.2_[T-1A]_H3.2_A3.1_F3.1_T3.2_[T9C]]
Kd: 1300 nM

UCUCUUGUACACUAUAUUUCUCUU (ssRNA) [Id_ii_S1_P3E.4_K3.3_C3.2_[C-2G]_H3.3_A3.1_F3.1_T3.2_[A10T]]
Kd: 0.901 nM

UCUCUUGUACACUAUAUAUCUCUU (ssRNA) [Id_ii_S1_P3E.4_K3.3_C3.2_[C-2G]_H3.3_A3.1_F3.1_T3.2]
Kd: 0.819 nM

UCUCUUCCUAUAUAUAUAUCUCUU (ssRNA) [Id_ii_S1_P3E.3_K3.2_C3.2_[T-1C]_H3.2_A3.1_F3.1_T3.2]
Kd: 578 nM

UCUCUUCAUAUAUAUAAUUCUCUU (ssRNA) [Id_ii_S1_P3E.3_K3.2_C3.2_[T-1A]_H3.2_A3.1_F3.1_T3.2_[T9A]_[A10T]]
Kd: 669 nM

UCUCUUUAACACUAUACGUCUCUU (ssRNA) [Id_ii_S1_P3E.4_K3.3_C3.2_[C-2T]_[T-1A]_H3.3_A3.1_F3.1_T3.2_[T9C]_[A10G]]
Kd: > 2300 nM

UCUCUUUAUAAAUUAUCUCUU (ssRNA) [Ib_S1_P4E.1_K4.1_C4.1_H4.1_[G2A]_A4.1_[T5A]_F4.1_T4.1]
Kd: 128 nM

UCUCUUCCUAUAUAUAACUCUCUU (ssRNA) [Id_ii_S1_P3E.3_K3.2_C3.2_[T-1C]_H3.2_A3.1_F3.1_T3.2_[T9A]_[A10C]]
Kd: 1070 nM

UCUCUUCAUAUAUAUAUAUCUCUU (ssRNA) [Id_ii_S1_P3E.3_K3.2_C3.2_[T-1A]_H3.2_A3.1_F3.1_T3.2]
Kd: 624 nM

UCUCUUCAUAUAUAUACGUCUCUU (ssRNA) [Id_ii_S1_P3E.3_K3.2_C3.2_[T-1A]_H3.2_A3.1_F3.1_T3.2_[T9C]_[A10G]]
Kd: 1120 nM

UCUCUUUAUAUGUUAUCUCUU (ssRNA) [Ib_S1_P4E.1_K4.1_C4.1_H4.1_[G2A]_A4.1_[A6G]_F4.1_T4.1]
Kd: 635 nM

UCUCUUCCUAUAUAUACAUCUCUU (ssRNA) [Id_ii_S1_P3E.3_K3.2_C3.2_[T-1C]_H3.2_A3.1_F3.1_T3.2_[T9C]]
Kd: 1260 nM

UCUCUUCCUAUAUAUAAGUCUCUU (ssRNA) [Id_ii_S1_P3E.3_K3.2_C3.2_[T-1C]_H3.2_A3.1_F3.1_T3.2_[T9A]_[A10G]]
Kd: 1540 nM

UCUCUUGCACACUAUACGUCUCUU (ssRNA) [Id_ii_S1_P3E.4_K3.3_C3.2_[C-2G]_[T-1C]_H3.3_A3.1_F3.1_T3.2_[T9C]_[A10G]]
Kd: 671 nM

UCUCUUGUACACUAUAUCUCUCUU (ssRNA) [Id_ii_S1_P3E.4_K3.3_C3.2_[C-2G]_H3.3_A3.1_F3.1_T3.2_[A10C]]
Kd: 0.836 nM

UCUCUUUUUAUCUUAUCUCUU (ssRNA) [Ib_S1_P4E.1_K4.1_C4.1_H4.1_[G2T]_A4.1_[A6C]_F4.1_T4.1]
Kd: > 2300 nM

UCUCUUCAUAUAUAUAGUUCUCUU (ssRNA) [Id_ii_S1_P3E.3_K3.2_C3.2_[T-1A]_H3.2_A3.1_F3.1_T3.2_[T9G]_[A10T]]
Kd: 413 nM

UCUCUUCUUAUAUAUAGUUCUCUU (ssRNA) [Id_ii_S1_P3E.3_K3.2_C3.2_H3.2_A3.1_F3.1_T3.2_[T9G]_[A10T]]
Kd: 109 nM

UCUCUUCUUAUAUAUAUGUCUCUU (ssRNA) [Id_ii_S1_P3E.3_K3.2_C3.2_H3.2_A3.1_F3.1_T3.2_[A10G]]
Kd: 499 nM

UCUCUUUGACACUAUAAUUCUCUU (ssRNA) [Id_ii_S1_P3E.4_K3.3_C3.2_[C-2T]_[T-1G]_H3.3_A3.1_F3.1_T3.2_[T9A]_[A10T]]
Kd: > 2300 nM

UCUCUUGCACACUAUAACUCUCUU (ssRNA) [Id_ii_S1_P3E.4_K3.3_C3.2_[C-2G]_[T-1C]_H3.3_A3.1_F3.1_T3.2_[T9A]_[A10C]]
Kd: 110 nM

UCUCUUUUUAUUUUAUCUCUU (ssRNA) [Ib_S1_P4E.1_K4.1_C4.1_H4.1_[G2T]_A4.1_[A6T]_F4.1_T4.1]
Kd: > 2300 nM

UCUCUUCUUAUAUAUAGCUCUCUU (ssRNA) [Id_ii_S1_P3E.3_K3.2_C3.2_H3.2_A3.1_F3.1_T3.2_[T9G]_[A10C]]
Kd: 77.5 nM

UCUCUUGUACACUAUACCUCUCUU (ssRNA) [Id_ii_S1_P3E.4_K3.3_C3.2_[C-2G]_H3.3_A3.1_F3.1_T3.2_[T9C]_[A10C]]
Kd: 0.984 nM

UCUCUUCUUAUAUAUACUUCUCUU (ssRNA) [Id_ii_S1_P3E.3_K3.2_C3.2_H3.2_A3.1_F3.1_T3.2_[T9C]_[A10T]]
Kd: 634 nM

UCUCUUCAUAUAUAUAGCUCUCUU (ssRNA) [Id_ii_S1_P3E.3_K3.2_C3.2_[T-1A]_H3.2_A3.1_F3.1_T3.2_[T9G]_[A10C]]
Kd: 512 nM

UCUCUUCCUAUAUAUACGUCUCUU (ssRNA) [Id_ii_S1_P3E.3_K3.2_C3.2_[T-1C]_H3.2_A3.1_F3.1_T3.2_[T9C]_[A10G]]
Kd: 1950 nM

UCUCUUUCACACUAUAAUUCUCUU (ssRNA) [Id_ii_S1_P3E.4_K3.3_C3.2_[C-2T]_[T-1C]_H3.3_A3.1_F3.1_T3.2_[T9A]_[A10T]]
Kd: > 2300 nM

UCUCUUCUUAUAUAUACGUCUCUU (ssRNA) [Id_ii_S1_P3E.3_K3.2_C3.2_H3.2_A3.1_F3.1_T3.2_[T9C]_[A10G]]
Kd: 1260 nM

UCUCUUCAUAUAUAUAUCUCUCUU (ssRNA) [Id_ii_S1_P3E.3_K3.2_C3.2_[T-1A]_H3.2_A3.1_F3.1_T3.2_[A10C]]
Kd: 717 nM

UCUCUUUUACACUAUAGCUCUCUU (ssRNA) [Id_ii_S1_P3E.4_K3.3_C3.2_[C-2T]_H3.3_A3.1_F3.1_T3.2_[T9G]_[A10C]]
Kd: > 2300 nM

UCUCUUUCACACUAUACCUCUCUU (ssRNA) [Id_ii_S1_P3E.4_K3.3_C3.2_[C-2T]_[T-1C]_H3.3_A3.1_F3.1_T3.2_[T9C]_[A10C]]
Kd: > 2300 nM

UCUCUUUCACACUAUAAAUCUCUU (ssRNA) [Id_ii_S1_P3E.4_K3.3_C3.2_[C-2T]_[T-1C]_H3.3_A3.1_F3.1_T3.2_[T9A]]
Kd: > 2300 nM

UCUCUUGUACACUAUAAUUCUCUU (ssRNA) [Id_ii_S1_P3E.4_K3.3_C3.2_[C-2G]_H3.3_A3.1_F3.1_T3.2_[T9A]_[A10T]]
Kd: 1.16 nM

UCUCUUUAUACAUUAUCUCUU (ssRNA) [Ib_S1_P4E.1_K4.1_C4.1_H4.1_[G2A]_A4.1_[T5C]_F4.1_T4.1]
Kd: 23.8 nM

UCUCUUUGACACUAUACAUCUCUU (ssRNA) [Id_ii_S1_P3E.4_K3.3_C3.2_[C-2T]_[T-1G]_H3.3_A3.1_F3.1_T3.2_[T9C]]
Kd: > 2300 nM

UCUCUUCCUAUAUAUAGUUCUCUU (ssRNA) [Id_ii_S1_P3E.3_K3.2_C3.2_[T-1C]_H3.2_A3.1_F3.1_T3.2_[T9G]_[A10T]]
Kd: 787 nM

UCUCUUGCACACUAUACUUCUCUU (ssRNA) [Id_ii_S1_P3E.4_K3.3_C3.2_[C-2G]_[T-1C]_H3.3_A3.1_F3.1_T3.2_[T9C]_[A10T]]
Kd: 122 nM

UCUCUUCCUAUAUAUAUGUCUCUU (ssRNA) [Id_ii_S1_P3E.3_K3.2_C3.2_[T-1C]_H3.2_A3.1_F3.1_T3.2_[A10G]]
Kd: 770 nM

UCUCUUCAUAUAUAUACUUCUCUU (ssRNA) [Id_ii_S1_P3E.3_K3.2_C3.2_[T-1A]_H3.2_A3.1_F3.1_T3.2_[T9C]_[A10T]]
Kd: 618 nM

UCUCUUUUACACUAUACGUCUCUU (ssRNA) [Id_ii_S1_P3E.4_K3.3_C3.2_[C-2T]_H3.3_A3.1_F3.1_T3.2_[T9C]_[A10G]]
Kd: 2060 nM

UCUCUUCAUAUAUAUAUUUCUCUU (ssRNA) [Id_ii_S1_P3E.3_K3.2_C3.2_[T-1A]_H3.2_A3.1_F3.1_T3.2_[A10T]]
Kd: 515 nM

UCUCUUCUUAUAUAUAUAUCUCUU (ssRNA) [Id_ii_S1_P3E.3_K3.2_C3.2_H3.2_A3.1_F3.1_T3.2]
Kd: 394 nM

From PMC9352680, “A comprehensive thermodynamic model for RNA binding by the Saccharomyces cerevisiae Pumilio protein PUF4”
